# Experimental data as given in publication PMC6305311.
# Substrate: O=[N+]([O-])c1ccc(O[C@@H]2O[C@H](CO)[C@@H](O)[C@H](O)[C@H]2O)cc1
# Experiment: purified protein
# Conditions: 5 min, pNPG 0.5-5.0 mg/ml
# [1] = optimal pH (6.0) and temperature
# [2] = optimal pH 6.0 and temperature 50°C, pH 6.0, 50.0 °C
Protein,Km [1] [µM],Vmax [1] [µmol/min/mg],kcat [1] [s⁻¹],Km [2] [µM],Vmax [2] [µmol/min/mg],kcat [2] [s⁻¹]
AaBGL1 (Thermomonospora amylolytica) (protein) MNLPADFLFGAATSAYQIEGAPAADGRLPSIWDDFCRVPGAIAGGDTGDVACDHYHRWREDVALMRRLGLDAYRFSVAWPRVVPRGTGEVNRPGLDFYDRLVDALLAAGIRPFVTLYHWDLPSALQERGGWPSRDTAAHFADYAAVVAARLGDRVTDWTTLNEPLCTAWIGHLEGRFAPGVRDLRQAVHASHHLLLAHGLGAAAIRANASAPPSIGLVNNLSPIQAASDRPEDVRAAIRADGHVNRWWLDPAHGRGYPADMIEVYGVEPPVRDGDLETIAAPVEYVGLNYYFRQIVADDPDGPAPYARQVPVPGAQTTAMGWEVHADGLAELLLRLSEDYTAPRIYVTESGSAWDDKVGADGSINDQDRIAYLEDHLAAVARAAEAGAPVQGYFVWSLLDNFEWADGLDKRFGLVHVDYATQQRTVKASGHRYAEIIRAHRGAP,3300,6.8,5.5,–,–,–
AaBGL2 (Thermomonospora amylolytica) (protein) MTAHETQAQIREPATAPFPQDFRWGAATSAYQIEGAVAEDGRGRSIWDTFCDTPGAVLGGDTAAEAVDHYHRYREDVALMAGLGLNAYRFSLSWPRIQPSGTGPADQRGLDFYRRLVDELLEAGIEPWITLYHWDLPQALEDKGGWPERDTALRFAEFAALAHGALGDRVSNWMTINEPWCAAYLGYASGEHAPGRREPAAALEAAHHLLLGHGLAVEAMRGQRSGARIGPAVNLYAVSPAADTPEDLDAARRIDGLQNRFFLDALLLGRYPDDLLEDLAPFGFADCVRDGDMRVVGVRNDLLGINYYTRHTVSGRPGDATQAVSSPFSTVSPWVGSEHVRFVGQGKPVTGMGWEVDPDGLLEVLARLHREYPAVPLYITENGAGYDDVLDADDAVRDDERIAYLDAHLRVCARAIDAGIPLRGYFTWSLMDNFEWAWGYSKRFGLVYVDYATQRRIPKASARWYARTIRRGGLPD,–,–,–,730,1.9,1.7
